Laboratory results from US20220112276A1 (Janssen / Centocor, published 2022).
Positions count from the first letter of the chain named.

B1: 01A04R3LS VHH Mono-Fc (Fc fusion)
chain: QVQLVESGGGSVQPGGSLRLSCAASGIDVSISTIMWYRQPPGRQRELVADVIPSGRSTTYTESVKGRFTVTRDNAKNTVYLQMSGLKPEDTAVYYCNAFVRRENYWGQGTQVTVSSSPAPELLGGPSVFLFPPKPKDTLMISRTPEVTCVVVDVSHEDPEVKFNWYVDGVEVHNAKTKPREEQYNSTYRVVSVLTVLHQDWLNGKEYKCKVSNKALPAPIEKTISKAKGQPREPQVYTKPPSREEMTKNQVSLSCLVKGFYPSDIAVEWESNGQPENNYKTTVPVLDSDGSFRLASYLTVDKSRWQQGNVFSCSVMHEALHNHYTQKSLSLSPGK
B2: 02H04R3 VHH Mono-Fc (Fc fusion)
chain: EVQLVESGGGLVQPGGRLRLSCAASGSIFSIRDMGWYRQAPGKQRELVAIFARGGSTHYADSVKGRFTISRDNAKNTVYLQMNSLEPEDTAAYYCNAEVATMIQPGFRDYWGQGTQVTVSSSPAPELLGGPSVFLFPPKPKDTLMISRTPEVTCVVVDVSHEDPEVKFNWYVDGVEVHNAKTKPREEQYNSTYRVVSVLTVLHQDWLNGKEYKCKVSNKALPAPIEKTISKAKGQPREPQVYTKPPSREEMTKNQVSLSCLVKGFYPSDIAVEWESNGQPENNYKTTVPVLDSDGSFRLASYLTVDKSRWQQGNVFSCSVMHEALHNHYTQKSLSLSPGK
B3: 01A03R3L VHH Mono-Fc (Fc fusion)
chain: B2 chain with R17Q, F29A, I31V, G35A, E46G, S56T, I103F, Q113R, Q116L
B4: 01C01R2L VHH Mono-Fc (Fc fusion)
chain: QVQLVESGGGLVQAGGSLRLSCAASGRTLRSYIVGWFRQAPGKEREFVAAVTWSDGRRVTADPVKGRFTISRDNAKNTVYLQMDSLKPEDAAVYYCAVSRGGAYEYSRAYEYWGQGTLVTVSSSPAPELLGGPSVFLFPPKPKDTLMISRTPEVTCVVVDVSHEDPEVKFNWYVDGVEVHNAKTKPREEQYNSTYRVVSVLTVLHQDWLNGKEYKCKVSNKALPAPIEKTISKAKGQPREPQVYTKPPSREEMTKNQVSLSCLVKGFYPSDIAVEWESNGQPENNYKTTVPVLDSDGSFRLASYLTVDKSRWQQGNVFSCSVMHEALHNHYTQKSLSLSPGK
B5: 01C03R2L VHH Mono-Fc (Fc fusion)
chain: B4 chain with Q1E, R100H, E105V, Y106E, L118Q
B6: 01F05R2LS VHH Mono-Fc (Fc fusion)
chain: QVQLVESGGGLVQAGGSLRLSCAASGSIFAINGMGWYRQAPGKQRELVAVITRGGSTNYADSVKGRFTISRDNAKNTVSLQMNSLKPEDTAVYYCAATGVLAGWAAGDGMDYWGKGTLVTVSSSPAPELLGGPSVFLFPPKPKDTLMISRTPEVTCVVVDVSHEDPEVKFNWYVDGVEVHNAKTKPREEQYNSTYRVVSVLTVLHQDWLNGKEYKCKVSNKALPAPIEKTISKAKGQPREPQVYTKPPSREEMTKNQVSLSCLVKGFYPSDIAVEWESNGQPENNYKTTVPVLDSDGSFRLASYLTVDKSRWQQGNVFSCSVMHEALHNHYTQKSLSLSPGK
B7: 01G05R2LS VHH Mono-Fc (Fc fusion)
chain: QVQLVESGGGLVQAGDSLALSCAGSGDTFSNYAMGWFRQAPGKEREFVADISWYSANIGYADSVKGRFTISRDNAKNMVTLRMNSLKPEDTAVYYCAADRNHWPVKGDYWGQGTQVTVSSSPAPELLGGPSVFLFPPKPKDTLMISRTPEVTCVVVDVSHEDPEVKFNWYVDGVEVHNAKTKPREEQYNSTYRVVSVLTVLHQDWLNGKEYKCKVSNKALPAPIEKTISKAKGQPREPQVYTKPPSREEMTKNQVSLSCLVKGFYPSDIAVEWESNGQPENNYKTTVPVLDSDGSFRLASYLTVDKSRWQQGNVFSCSVMHEALHNHYTQKSLSLSPGK
B8: 01C03R3 VHH Mono-Fc (Fc fusion)
chain: QVQLVESGGGLVQAGGSLRLSCAASGRTFSSYAMGWFRQAPGKEREFVAAIHWNGASTYRYSADSVKGRFTISRDNAKNTVYLQMNSLKPEDTAAYYCAASPPPTVGDVRDPANYDSWGQGTLVTVSSSPAPELLGGPSVFLFPPKPKDTLMISRTPEVTCVVVDVSHEDPEVKFNWYVDGVEVHNAKTKPREEQYNSTYRVVSVLTVLHQDWLNGKEYKCKVSNKALPAPIEKTISKAKGQPREPQVYTKPPSREEMTKNQVSLSCLVKGFYPSDIAVEWESNGQPENNYKTTVPVLDSDGSFRLASYLTVDKSRWQQGNVFSCSVMHEALHNHYTQKSLSLSPGK
B9: 01A02R3 VHH Mono-Fc (Fc fusion)
chain: EVQLVESGGGLVQSGGSLRLSCAASGRTFDQFTVGWFRQAPGKEREFVTAIRWSGSTTYRYYADSVKGRFTISRDNARNTVDLQMNSLKPEDSAVYYCAGQMSQWSDPRGDDYDSWGQGTLVTVSSSPAPELLGGPSVFLFPPKPKDTLMISRTPEVTCVVVDVSHEDPEVKFNWYVDGVEVHNAKTKPREEQYNSTYRVVSVLTVLHQDWLNGKEYKCKVSNKALPAPIEKTISKAKGQPREPQVYTKPPSREEMTKNQVSLSCLVKGFYPSDIAVEWESNGQPENNYKTTVPVLDSDGSFRLASYLTVDKSRWQQGNVFSCSVMHEALHNHYTQKSLSLSPGK
B10: 01E05R2 VHH Mono-Fc (Fc fusion)
chain: QVQLVESGGGLVQAGGSLRLSCAASGRAFSSGRMGWFRQAPGKEREFVAAISWSGHTTYKYYADSVKGRFTISRENAKNTVSLQMNSLKPEDTAVYYCAARQSLVAGGDPRGQSEYDYWGQGTLVTVSSSPAPELLGGPSVFLFPPKPKDTLMISRTPEVTCVVVDVSHEDPEVKFNWYVDGVEVHNAKTKPREEQYNSTYRVVSVLTVLHQDWLNGKEYKCKVSNKALPAPIEKTISKAKGQPREPQVYTKPPSREEMTKNQVSLSCLVKGFYPSDIAVEWESNGQPENNYKTTVPVLDSDGSFRLASYLTVDKSRWQQGNVFSCSVMHEALHNHYTQKSLSLSPGK
B11: 01B07R2L VHH Mono-Fc (Fc fusion)
chain: EVQLVESGGGLVQAGGSLRLSCAASGRTFSSDAVGWFRQAPGKEREFVAHIHWSGDFTTYYYYGDFVKGRFTISRGTAKNTVYLQMNSLKPEDTAVYYCAAPKGAIGDPRSTREYDYWGQGTLVTVSSSPAPELLGGPSVFLFPPKPKDTLMISRTPEVTCVVVDVSHEDPEVKFNWYVDGVEVHNAKTKPREEQYNSTYRVVSVLTVLHQDWLNGKEYKCKVSNKALPAPIEKTISKAKGQPREPQVYTKPPSREEMTKNQVSLSCLVKGFYPSDIAVEWESNGQPENNYKTTVPVLDSDGSFRLASYLTVDKSRWQQGNVFSCSVMHEALHNHYTQKSLSLSPGK
B12: 03D02R3 VHH Mono-Fc (Fc fusion)
chain: EVQLVESGGGLAQAGGSLRLSCTASGTISKIDVMAWYRQTPGNERELVARIFSNDVTHYVDSAKGRFTLSRAQDKNTVDLQMNSLEPDDAAVYYCNAQIWSDMRGRMDTYWGQGTLVTVSSSPAPELLGGPSVFLFPPKPKDTLMISRTPEVTCVVVDVSHEDPEVKFNWYVDGVEVHNAKTKPREEQYNSTYRVVSVLTVLHQDWLNGKEYKCKVSNKALPAPIEKTISKAKGQPREPQVYTKPPSREEMTKNQVSLSCLVKGFYPSDIAVEWESNGQPENNYKTTVPVLDSDGSFRLASYLTVDKSRWQQGNVFSCSVMHEALHNHYTQKSLSLSPGK

Target: T1, human pIgR extracellular domain (ECD) (human, UniProt P01833 19-638)
T1 construct: Bought from R&D Systems (Cat 2717-PG-050); also called hpIgR ECD
Experiment: SPR

T1 sequence (P01833 other isoform, or with tags, fused parts or gaps): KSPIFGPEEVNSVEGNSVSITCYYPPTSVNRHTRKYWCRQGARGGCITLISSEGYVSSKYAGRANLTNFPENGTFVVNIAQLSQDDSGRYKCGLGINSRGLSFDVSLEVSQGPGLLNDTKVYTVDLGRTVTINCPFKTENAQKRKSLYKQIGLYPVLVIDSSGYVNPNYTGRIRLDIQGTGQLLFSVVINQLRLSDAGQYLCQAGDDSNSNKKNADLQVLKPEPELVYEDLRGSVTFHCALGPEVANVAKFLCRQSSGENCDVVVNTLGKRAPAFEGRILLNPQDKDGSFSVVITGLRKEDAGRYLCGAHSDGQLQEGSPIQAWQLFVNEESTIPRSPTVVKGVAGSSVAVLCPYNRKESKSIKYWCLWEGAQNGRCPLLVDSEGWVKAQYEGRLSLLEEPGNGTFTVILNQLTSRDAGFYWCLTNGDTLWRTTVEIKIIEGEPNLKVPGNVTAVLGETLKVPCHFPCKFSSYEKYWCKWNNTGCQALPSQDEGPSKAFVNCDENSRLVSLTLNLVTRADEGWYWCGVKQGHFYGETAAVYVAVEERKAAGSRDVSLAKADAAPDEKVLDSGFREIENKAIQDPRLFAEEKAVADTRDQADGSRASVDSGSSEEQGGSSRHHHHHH

Binder | binding result
B1 | no binding (tested: 30 nM)
B2 | no binding (tested: 30 nM)
B3 | no binding (tested: 30 nM)
B4 | no binding (tested: 30 nM)
B5 | no binding (tested: 30 nM)
B6 | no binding (tested: 30 nM)
B7 | no binding (tested: 30 nM)

Target: T1, human pIgR extracellular domain (ECD)
Experiment: SPR, VHH captured by anti-Fc, ECD analyte
Procedure, shortened: (§1)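 Anti-human Fc surface captured VHH at 0.5 ug/ml (~200-300 RU); running buffer HBSP with 100 ug/ml BSA, 30 μL/min. Single-cycle kinetics with ECD injected low to high from 30 nM in 3-fold dilutions, dissociation 30 min. Double-referenced data globally fit to 1:1 Langmuir model for kon, koff, KD.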

Binder | Kd [nM]
B8 | 13.3
B9 | 17.9
B10 | 34.2
B11 | 11.4
B12 | 0.391

Target: T2, mouse pIgR extracellular domain (ECD) (mouse, UniProt O70570 19-645)
T2 construct: Bought from R&D Systems (Cat 2800-PG-050); also called mpIgR ECD
T2 sequence: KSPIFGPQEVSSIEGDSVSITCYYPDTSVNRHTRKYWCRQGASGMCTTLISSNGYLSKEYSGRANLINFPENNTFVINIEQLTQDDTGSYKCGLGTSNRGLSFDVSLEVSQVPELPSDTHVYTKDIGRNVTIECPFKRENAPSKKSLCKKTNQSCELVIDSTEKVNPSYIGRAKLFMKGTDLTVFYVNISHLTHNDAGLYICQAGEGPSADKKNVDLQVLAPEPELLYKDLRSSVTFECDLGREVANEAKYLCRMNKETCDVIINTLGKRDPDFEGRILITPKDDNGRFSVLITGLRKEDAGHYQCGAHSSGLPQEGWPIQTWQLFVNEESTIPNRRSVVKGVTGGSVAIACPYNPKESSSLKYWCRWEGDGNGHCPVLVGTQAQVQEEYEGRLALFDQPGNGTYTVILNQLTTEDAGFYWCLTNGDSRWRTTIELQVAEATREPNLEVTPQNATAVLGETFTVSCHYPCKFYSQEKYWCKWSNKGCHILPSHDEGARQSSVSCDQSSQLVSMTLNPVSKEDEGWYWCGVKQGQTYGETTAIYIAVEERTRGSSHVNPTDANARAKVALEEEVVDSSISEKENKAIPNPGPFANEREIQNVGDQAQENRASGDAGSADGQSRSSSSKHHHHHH
Experiment: SPR, VHH captured by anti-Fc, ECD analyte
Procedure, shortened: as §1

Binder | Kd [nM]
B8 | 25.6
B9 | 7.18
B1 | 3.29
B10 | 17.3
B11 | 4.46
B2 | 46.6
B3 | 6.06
B4 | 6.55
B5 | 3.67
B6 | 3.98
B7 | 19.8
B12 | 126

Target: T3, cynomolgus monkey pIgR extracellular domain (cynomolgus monkey, UniProt A0A2K5WMU9 19-638)
T3 construct: extracellular domain
Experiment: SPR, VHH captured by anti-Fc, ECD analyte
Procedure, shortened: as §1

T3 sequence (A0A2K5WMU9 entry or part of it): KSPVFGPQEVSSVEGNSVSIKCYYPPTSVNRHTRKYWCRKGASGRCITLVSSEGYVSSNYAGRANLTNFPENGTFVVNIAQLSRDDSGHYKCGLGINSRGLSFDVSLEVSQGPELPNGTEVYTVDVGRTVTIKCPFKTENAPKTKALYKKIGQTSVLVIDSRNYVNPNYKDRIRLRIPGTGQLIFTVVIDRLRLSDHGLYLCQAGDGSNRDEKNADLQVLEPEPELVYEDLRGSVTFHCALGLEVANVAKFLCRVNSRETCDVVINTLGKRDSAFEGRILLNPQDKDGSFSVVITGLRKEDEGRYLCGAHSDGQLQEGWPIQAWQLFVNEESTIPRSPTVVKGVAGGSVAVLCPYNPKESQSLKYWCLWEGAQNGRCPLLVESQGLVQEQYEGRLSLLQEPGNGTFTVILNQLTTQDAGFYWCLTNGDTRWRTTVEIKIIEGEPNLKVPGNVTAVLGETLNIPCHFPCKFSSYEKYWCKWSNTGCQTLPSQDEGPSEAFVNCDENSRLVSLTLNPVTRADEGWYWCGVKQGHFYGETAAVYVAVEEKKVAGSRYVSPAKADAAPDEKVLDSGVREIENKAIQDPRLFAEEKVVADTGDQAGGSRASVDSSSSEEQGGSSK

Binder | Kd [nM]
B8 | 22.2
B9 | 4.97
B10 | 36.2
B11 | 2.11
B6 | 2.72
B12 | 37.8

Target: T4, rat pIgR extracellular domain (rat, UniProt P15083 19-643)
T4 construct: extracellular domain
T4 sequence (looked up): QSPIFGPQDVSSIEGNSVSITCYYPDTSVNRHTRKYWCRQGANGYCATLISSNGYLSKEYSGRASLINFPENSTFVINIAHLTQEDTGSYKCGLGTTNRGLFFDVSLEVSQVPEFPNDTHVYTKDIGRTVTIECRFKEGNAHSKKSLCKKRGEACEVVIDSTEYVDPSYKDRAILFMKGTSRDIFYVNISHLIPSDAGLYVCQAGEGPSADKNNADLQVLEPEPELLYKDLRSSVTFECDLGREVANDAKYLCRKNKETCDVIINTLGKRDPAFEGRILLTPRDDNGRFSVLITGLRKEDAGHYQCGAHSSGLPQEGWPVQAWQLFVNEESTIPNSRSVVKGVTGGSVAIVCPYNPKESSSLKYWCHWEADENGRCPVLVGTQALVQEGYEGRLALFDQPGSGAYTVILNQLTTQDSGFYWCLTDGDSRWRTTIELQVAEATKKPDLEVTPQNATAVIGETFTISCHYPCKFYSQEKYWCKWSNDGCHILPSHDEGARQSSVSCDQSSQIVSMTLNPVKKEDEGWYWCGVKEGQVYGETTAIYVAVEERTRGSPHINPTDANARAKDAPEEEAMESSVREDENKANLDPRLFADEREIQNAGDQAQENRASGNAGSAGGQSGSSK
Experiment: SPR, VHH captured by anti-Fc, ECD analyte
Procedure, shortened: as §1

Binder | Kd [nM]
B8 | 15.2
B9 | 2.78
B10 | 16.1
B11 | 2.33
B2 | 25.4
B3 | 2.91
B12 | 126
